Read-outs that look alike come from different tables or passages of the source.
How the values were obtained:
Test in all cases: AUC
AUC [1] = molecular target: the molecule itself
AUC [2] = molecular target: the molecule itself; remark: listed apart in the source
AUC [3] = molecular target: the molecule itself; remark: listed apart in the source
AUC [4] = molecular target: the molecule itself; remark: listed apart in the source

B1: S100A12 (natural protein, human)
chain: TKLEEHLEGIVNIFHQYSVRKGHFDTLSKGELKQLLTKELANTIKNIKDKAVIDEIFQGLDANQDEQVDFQEFISLVAIALKAAHYHTHKE
B1 was tested, and the Kd (AUC [1]) was 13.2 µM, the “stoichiometry N” value (AUC [2]) was 2 and the Kd (AUC [3]) was 4590 µM. It also gave a Kd (AUC [4]) of 56.7 µM.

— paper PMC7292962 (Biochemistry, 2019)
